Here are results for one molecule from US20150307846A1, “GROWTH FACTOR COCKTAIL TO ENHANCE OSTEOGENIC DIFFERENTIATION OF MESENCHYMAL CELLS” (University of Pennsylvania, priority 2012, published 2015).

The test system of this experiment is human periosteum derived cells (hPDCs). Nature of the experiment: Gene expression of bone markers in hPDCs in 2D culture (Taqman PCR). Format: cell-based. Particulars: two stage protocol, six factors minus one, 4 days. The protocol: Same experimental design as in A. C) Identification of factors involved in osteoblast maturation. hPDCs were treated with OM and TGFβ1 for 6 days, followed by stimulation with GM (negative control), GM containing six factors or GM supplement with six minus one factor for 4 days. The factors are ascorbic acid (Asc. Ac., 57 μM), TNFα (50 ng/ml), IL6 (10 ng/ml), EGF (20 ng/ml), Ca (6 mM) and Pi (4 mM). To evaluate osteoblast maturation, gene expression of RUNX2, OSX, DLX5, iBSP, OC and RANKL is measured with Taqman PCR. […] Gene expression is expressed as fold increase as compared to the GM condition. […] Gene expression is expressed as fold increase as compared to hPDCs cultured in OM/TGFβ1 (n=3, error bars: standard deviations, *p≦00.05, Mann-Whitney U test).
Cell culture. […] For in vitro osteogenic differentiation assays, passage 6 to passage 9 hPDCs (pool of four different donors) were seeded at 3000 cells/cm^2 in either 96-well plates to assess proliferation and alkaline phosphatase activity or in the middle eight wells of a 24-well plate for quantifying gene expression. […]
Quantitative PCR. […]

B1: EGF: growth factor ligand, 20 ng/ml (protein, UniProt P01133 23-1207, looked up)
Pro-epidermal growth factor: PQHWSCPEGTLAGNGNSTCVGPAPFLIFSHGNSIFRIDTEGTNYEQLVVDAGVSVIMDFHYNEKRIYWVDLERQLLQRVFLNGSRQERVCNIEKNVSGMAINWINEEVIWSNQQEGIITVTDMKGNNSHILLSALKYPANVAVDPVERFIFWSSEVAGSLYRADLDGVGVKALLETSEKITAVSLDVLDKRLFWIQYNREGSNSLICSCDYDGGSVHISKHPTQHNLFAMSLFGDRIFYSTWKMKTIWIANKHTGKDMVRINLHSSFVPLGELKVVHPLAQPKAEDDTWEPEQKLCKLRKGNCSSTVCGQDLQSHLCMCAEGYALSRDRKYCEDVNECAFWNHGCTLGCKNTPGSYYCTCPVGFVLLPDGKRCHQLVSCPRNVSECSHDCVLTSEGPLCFCPEGSVLERDGKTCSGCSSPDNGGCSQLCVPLSPVSWECDCFPGYDLQLDEKSCAASGPQPFLLFANSQDIRHMHFDGTDYGTLLSQQMGMVYALDHDPVENKIYFAHTALKWIERANMDGSQRERLIEEGVDVPEGLAVDWIGRRFYWTDRGKSLIGRSDLNGKRSKIITKENISQPRGIAVHPMAKRLFWTDTGINPRIESSSLQGLGRLVIASSDLIWPSGITIDFLTDKLYWCDAKQSVIEMANLDGSKRRRLTQNDVGHPFAVAVFEDYVWFSDWAMPSVMRVNKRTGKDRVRLQGSMLKPSSLVVVHPLAKPGADPCLYQNGGCEHICKKRLGTAWCSCREGFMKASDGKTCLALDGHQLLAGGEVDLKNQVTPLDILSKTRVSEDNITESQHMLVAEIMVSDQDDCAPVGCSMYARCISEGEDATCQCLKGFAGDGKLCSDIDECEMGVPVCPPASSKCINTEGGYVCRCSEGYQGDGIHCLDIDECQLGEHSCGENASCTNTEGGYTCMCAGRLSEPGLICPDSTPPPHLREDDHHYSVRNSDSECPLSHDGYCLHDGVCMYIEALDKYACNCVVGYIGERCQYRDLKWWELRHAGHGQQQKVIVVAVCVVVLVMLLLLSLWGAHYYRTQKLLSKNPKNPYEESSRDVRSRRPADTEDGMSSCPQPWFVVIKEHQDLKNGGQPVAGEDGQAADGSMQPTSWRQEPQLCGMGTEQGCWIPVSSDKGSCPQVMERSFHMPSYGTQTLEGGVEKPHSLLSANPLWQQRALDPPHQMELTQ
modifications: Pro-epidermal growth factor
notes: growth factor ligand, 20 ng/ml
With B1, the “RANKL expression in medium devoid of the factor” value is “lower levels” and the “role in DLX5 transcription” value was “required”.
